From publication PMC9114487, “Generation of a High-Affinity Nanobody Against CD147 for Tumor Targeting and Therapeutic Efficacy Through Conjugating Doxorubicin” (Frontiers in Immunology, 2022)
Where a chain is given by its changes, count along the chain named.

B1: anti-CD147 nanobody 11-1 (VHH)
VHH: QVQLQESGGGSVQAGGSLRLSCAVSGYTYSSCSMDWYRQAPGKERELVSSISSGGNTYYEDSVKGRFTISQDNAKNTVYLQMNSLKPEDTASYYCKMWCPGNKSYWGQGTQVTVSS
notes: Selected by phage display from an immune VHH library; The immunised animal is called an alpaca in the methods, a camel in the results and a Bactrian camel in the discussion; About 13 kDa by SDS-PAGE; Surmise: pET-15b usually adds an N-terminal His tag; also called Nb 11-1; anti-CD147-VHH Nb (11-1); source: E. coli BL21(DE3), pET-15b, purified (His-Trap HP column)
B2: V-1 (VHH)
VHH: QVQLQESGGGSVQAGGSLRLSCRASGYTFSRHCMGWFRQGPGKEREVVATIYTFNGRTYYADSVKGRFTVSQDNAQNSLYLQMDSLKPEDTAMYYCAAARIGWTSVSGSCPRMGDVNKYWGQGTQVTVSS
B3: V-22 (VHH)
VHH: B2 VHH with G40T, R57H, V70I
B4: V-13 (VHH)
VHH: B2 VHH with R31E, V70I
B5: V-3 (VHH)
VHH: B2 VHH with S17T, A24V, Y59S, V70I, M93T, V116E
B6: V-19 (VHH)
VHH: B2 VHH with S25P, K43E, Y59T, V70I, V106A, V116E
B7: V-11 (VHH)
VHH: B2 VHH with V47L, T50S, V70I, V116E
B8: V-2 (VHH)
VHH: B2 VHH with R57H, V70I, A75P, Y80T
B9: V-23 (VHH)
VHH: B2 VHH with R31E, V47L, T50S, V70I
B10: V-14 (VHH)
VHH: B2 VHH with V70I
B11: V-24 (VHH)
VHH: QVQLQESGGGLVLPGGSLRLSCAAFGFIFSDFDMSWVRQAPGKGLEWVSSISRYGRTSSADSVKGRFTISRDNAKNTLYLQMHSLKTDDTAVYYCATGNFCSGGRCYIDRGQGTQVTVSS
B12: V-25 (VHH)
VHH: B11 VHH with L13Q, D31N, Q81E, H83N, T87S, D88A, D109N
B13: V-26 (VHH)
VHH: B11 VHH with L11S, L13Q, P14A, D31N, F32Y, L45F, S59N, S62A, H83N, D109N
B14: V-28 (VHH)
VHH: B11 VHH with L11S, L13Q, P14A, D31N, F32Y, H83N, A96T, I108S, D109N
B15: V-29 (VHH)
VHH: B11 VHH with L13Q, D31N, F32Y, L45F, S59N, S62A, H83N, D109N
B16: V-27 (VHH)
VHH: B11 VHH with L13Q, D31N, F32Y, H83N
B17: V-10 (VHH)
VHH: B1 VHH with A23S, Y27S, Y29F, Y37F, E46G, S92M
B18: V-17 (VHH)
VHH: B1 VHH with Q81R, S92I, G101W
B19: V-4 (VHH)
VHH: B1 VHH with A23S, Y27G, Y29F, Y37F, E44V, N76T, S92M, W98F, G101W
B20: V-5 (VHH)
VHH: QVQLQESGGGSVQAGETLTLSCTASGYTFSSSNCMGWFRQAPGQEREDVAIISVRGGITYYADSVKGRFTISRDNAKNTLSLQMNSLKPEDTAVYYCAADNPKYRDLYNAHCNWSYRYWGQGTQVTVSS
B21: V-7 (VHH)
VHH: B20 VHH with E16G, T17S, T19R, T23A, Q44K, N75S, D106A, Y108S, N109D
B22: V-15 (VHH)
VHH: B20 VHH with V12A, E16G, T17S, T19R, T23A, Q44K, D48G, N109D
B23: V-21 (VHH)
VHH: B20 VHH with E16G, T17S, T19R, T23A, Q44K, N75S, P89S, D106Q, Y108S
B24: V-18 (VHH)
VHH: B20 VHH with E16G, T17S, T19R, T23A, Q44K, A62T, S86N, E90D, N109G
B25: V-9 (VHH)
VHH: B20 VHH with E16G, T17S, T19R, T23A, A62V, S86N, N109D
B26: V-20 (VHH)
VHH: B20 VHH with E16G, T17S, T19R, T23A, A62V, S86N, Y108H, N109G, A110G
B27: EGFP-VHH fusion protein EGFP-11-1 (VHH)
VHH: B1 VHH
notes: as the VHH of m1; About 40 kDa by SDS-PAGE; also called 11-1-EGFP; EGFP-11-1 Nbs; source: E. coli BL21(DE3), pET-25b, purified (His-Trap HP column); not shown: EGFP, C-terminal, kept

What follows are binders tested against C78 (C-terminal ecto-domain protein of CD147) (assay: BLI; ForteBio Octet; biotin-labeled CD147 or C78 immobilized on the sensors (200 s); Nb 11-1 at different concentrations in PBST, 200 s; PBST 100 s; room temperature, shaking 1,000 rpm). Conditions: not given.

Binder	Kd	koff	kon
B1	1.78 nM	0.000104 s⁻¹	58200 M⁻¹ s⁻¹

What follows are binders tested against T1, ecto-domain protein of CD147 (Homo sapiens (assumed), isoform 2, UniProt P35613-2, biotin (Sulfo-NHS-LC-Biotin) in the BLI only) in the same assay as above. Conditions: both partners purified.
T1 construct: CD147 (EMMPRIN, basigin), ecto-domain protein; also called CD147 protein; EMMPRIN
Target sequence in this assay (P35613 whole entry, looked up, tested part not stated, canonical isoform): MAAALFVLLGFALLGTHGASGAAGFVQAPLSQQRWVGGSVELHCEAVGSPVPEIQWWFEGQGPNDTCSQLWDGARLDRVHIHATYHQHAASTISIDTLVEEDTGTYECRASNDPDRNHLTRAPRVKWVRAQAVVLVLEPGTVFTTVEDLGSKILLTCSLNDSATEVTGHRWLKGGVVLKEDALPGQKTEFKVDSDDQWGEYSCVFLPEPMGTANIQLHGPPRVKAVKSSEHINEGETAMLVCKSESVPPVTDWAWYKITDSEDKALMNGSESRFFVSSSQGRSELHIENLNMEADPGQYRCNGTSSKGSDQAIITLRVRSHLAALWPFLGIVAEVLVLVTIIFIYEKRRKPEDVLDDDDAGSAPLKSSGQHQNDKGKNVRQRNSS

Binder	Kd	koff	kon
B1	0.636 nM	2.2e-05 s⁻¹	34600 M⁻¹ s⁻¹

What follows are binders tested against T1, ecto-domain protein of CD147 (assay: not given). Conditions: not given.
Target sequence in this assay (P35613 other isoform, or with tags, fused parts or gaps): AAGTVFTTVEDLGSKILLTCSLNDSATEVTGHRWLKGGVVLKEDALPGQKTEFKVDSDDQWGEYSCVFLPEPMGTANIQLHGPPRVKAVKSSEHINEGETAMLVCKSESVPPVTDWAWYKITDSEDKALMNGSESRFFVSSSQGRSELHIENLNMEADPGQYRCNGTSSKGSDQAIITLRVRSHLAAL

Binder	binding result
B2	binds
B3	binds
B4	binds
B5	binds
B6	binds
B7	binds
B8	binds
B9	binds
B10	binds
B11	binds
B12	binds
B13	binds
B14	binds
B15	binds
B16	binds
B17	binds
B18	binds
B19	binds
B20	binds
B21	binds
B22	binds
B23	binds
B24	binds
B25	binds
B26	binds

What follows are binders tested against T1, ecto-domain protein of CD147 (assay: BLI; kinetics between CD147 and EGFP-11-1 (Figure 3F); who was immobilised is not told for this pair). Conditions: both partners purified.
Target sequence in this assay (P35613 whole entry, looked up, tested part not stated, canonical isoform): as the sequence (P35613 whole entry, looked up, tested part not stated, canonical isoform) above

Binder	Kd
B27	11.1 nM
